From paper PMC9317633, “Antifungal Effect of Penicillamine Due to the Selective Targeting of L-Homoserine O-Acetyltransferase” (International Journal of Molecular Sciences, 2022)

T1: CaMet2NHp (Candida albicans, UniProt Q5A948)
T1 construct: gene MET2; full length with N-terminal oligo-His tag (kept), ~45 kDa; E. coli Rosetta (DE3) pLysS; dimer only in model
T1 sequence (Q5A948 1-409): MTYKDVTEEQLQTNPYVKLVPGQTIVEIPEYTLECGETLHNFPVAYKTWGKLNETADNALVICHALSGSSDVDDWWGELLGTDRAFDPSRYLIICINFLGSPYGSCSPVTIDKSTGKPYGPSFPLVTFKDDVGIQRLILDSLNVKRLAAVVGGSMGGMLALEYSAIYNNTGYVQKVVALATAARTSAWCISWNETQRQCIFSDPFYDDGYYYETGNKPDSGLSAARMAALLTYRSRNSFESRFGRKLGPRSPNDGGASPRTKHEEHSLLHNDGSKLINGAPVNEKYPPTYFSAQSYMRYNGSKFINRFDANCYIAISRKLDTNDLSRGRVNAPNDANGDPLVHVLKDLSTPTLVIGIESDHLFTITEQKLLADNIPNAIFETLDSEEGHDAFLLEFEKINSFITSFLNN


Tests used:
[1] = target: T1, CaMet2NHp; experiment: inhibition, DTNB end-point assay of CoA formed, […] nm; assay type: biochemical
[2] = target: T1, CaMet2NHp; experiment: as above; assay type: biochemical; conditions: read-out: % inhibition at 25 mM
[3] = substrate: CC(=O)SCCNC(=O)CCNC(=O)[C@H](O)C(C)(C)COP(=O)(O)OP(=O)(O)OC[C@H]1O[C@@H](n2cnc3c(N)ncnc32)[C@H](O)[C@@H]1OP(=O)(O)O; experiment: purified protein; assay type: biochemical, Candida albicans; conditions: 10 mM L-Hom, pH 8.0 phosphate, 100 mM NaCl, 1 mM EDTA, 37 °C
[4] = substrate: N[C@@H](CCO)C(=O)O; experiment: purified protein; assay type: biochemical, Candida albicans; conditions: 3.5 mM AcCoA, pH 8.0 phosphate, 100 mM NaCl, 1 mM EDTA, 37 °C

Row | Molecule | IC50 [1] [µM] | inhibition at 25000 µM [2] [%] | Km [3] [µM] | Vmax [3] [µmol/min/mg] | kcat [3] [s⁻¹] | kcat/Km [3] [M⁻¹ s⁻¹] | Km [4] [µM] | Vmax [4] [µmol/min/mg] | kcat [4] [s⁻¹] | kcat/Km [4] [M⁻¹ s⁻¹]
1 | CC(C)(S)[C@@H](N)C(=O)O [D-Pen] | ~2000 |  |  |  |  |  |  |  |  | 
2 | CC(C)(S)[C@H](N)C(=O)O [L-Pen] | ~2000 |  |  |  |  |  |  |  |  | 
3 | CSCC[C@H](N)C(=O)O [L-Met] |  | 17 |  |  |  |  |  |  |  | 
4 | CaMet2p (Candida albicans SC5314) (protein, E. coli BL21 Star (DE3); dimer only in model) MTYKDVTEEQLQTNPYVKLVPGQTIVEIPEYTLECGETLHNFPVAYKTWGKLNETADNALVICHALSGSSDVDDWWGELLGTDRAFDPSRYLIICINFLGSPYGSCSPVTIDKSTGKPYGPSFPLVTFKDDVGIQRLILDSLNVKRLAAVVGGSMGGMLALEYSAIYNNTGYVQKVVALATAARTSAWCISWNETQRQCIFSDPFYDDGYYYETGNKPDSGLSAARMAALLTYRSRNSFESRFGRKLGPRSPNDGGASPRTKHEEHSLLHNDGSKLINGAPVNEKYPPTYFSAQSYMRYNGSKFINRFDANCYIAISRKLDTNDLSRGRVNAPNDANGDPLVHVLKDLSTPTLVIGIESDHLFTITEQKLLADNIPNAIFETLDSEEGHDAFLLEFEKINSFITSFLNN |  |  | 906 ± 119 | 20.1 | 15.2 ± 0.572 | 16800 | 405 ± 50 | 17.1 | 13 ± 0.405 | 32100
5 | CaMet2NHp (Candida albicans SC5314) (protein, full length with N-terminal oligo-His tag (kept), ~45 kDa; E. coli Rosetta (DE3) pLysS; dimer only in model) MTYKDVTEEQLQTNPYVKLVPGQTIVEIPEYTLECGETLHNFPVAYKTWGKLNETADNALVICHALSGSSDVDDWWGELLGTDRAFDPSRYLIICINFLGSPYGSCSPVTIDKSTGKPYGPSFPLVTFKDDVGIQRLILDSLNVKRLAAVVGGSMGGMLALEYSAIYNNTGYVQKVVALATAARTSAWCISWNETQRQCIFSDPFYDDGYYYETGNKPDSGLSAARMAALLTYRSRNSFESRFGRKLGPRSPNDGGASPRTKHEEHSLLHNDGSKLINGAPVNEKYPPTYFSAQSYMRYNGSKFINRFDANCYIAISRKLDTNDLSRGRVNAPNDANGDPLVHVLKDLSTPTLVIGIESDHLFTITEQKLLADNIPNAIFETLDSEEGHDAFLLEFEKINSFITSFLNN |  |  | 1130 ± 150 | 19.8 | 15 ± 0.635 | 13300 | 578 ± 118 | 17.2 | 13.1 ± 0.723 | 22700
